Results: US20100015126A1 (published 2010)

T1: fibrin (immobilized, formed from fibrinogen with factor IIa) (UniProt P02671 36-629; P02675 45-491; P02679 27-437)
T1 sequence (looked up) 1: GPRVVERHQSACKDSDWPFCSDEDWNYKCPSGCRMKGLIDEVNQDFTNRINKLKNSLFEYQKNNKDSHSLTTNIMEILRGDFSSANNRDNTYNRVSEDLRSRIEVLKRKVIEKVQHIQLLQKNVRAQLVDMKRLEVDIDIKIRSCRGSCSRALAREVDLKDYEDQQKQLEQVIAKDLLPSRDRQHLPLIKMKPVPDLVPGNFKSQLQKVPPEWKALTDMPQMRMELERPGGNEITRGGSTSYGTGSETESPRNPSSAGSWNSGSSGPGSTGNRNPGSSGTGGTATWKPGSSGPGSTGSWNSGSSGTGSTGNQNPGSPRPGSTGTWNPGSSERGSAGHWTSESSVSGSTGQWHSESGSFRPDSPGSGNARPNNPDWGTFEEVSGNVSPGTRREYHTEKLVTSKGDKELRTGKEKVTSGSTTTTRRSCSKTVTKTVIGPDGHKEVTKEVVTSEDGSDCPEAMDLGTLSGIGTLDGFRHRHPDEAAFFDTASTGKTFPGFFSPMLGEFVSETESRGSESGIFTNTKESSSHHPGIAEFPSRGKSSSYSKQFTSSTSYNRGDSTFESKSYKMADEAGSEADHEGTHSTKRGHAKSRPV
T1 sequence (looked up) 2: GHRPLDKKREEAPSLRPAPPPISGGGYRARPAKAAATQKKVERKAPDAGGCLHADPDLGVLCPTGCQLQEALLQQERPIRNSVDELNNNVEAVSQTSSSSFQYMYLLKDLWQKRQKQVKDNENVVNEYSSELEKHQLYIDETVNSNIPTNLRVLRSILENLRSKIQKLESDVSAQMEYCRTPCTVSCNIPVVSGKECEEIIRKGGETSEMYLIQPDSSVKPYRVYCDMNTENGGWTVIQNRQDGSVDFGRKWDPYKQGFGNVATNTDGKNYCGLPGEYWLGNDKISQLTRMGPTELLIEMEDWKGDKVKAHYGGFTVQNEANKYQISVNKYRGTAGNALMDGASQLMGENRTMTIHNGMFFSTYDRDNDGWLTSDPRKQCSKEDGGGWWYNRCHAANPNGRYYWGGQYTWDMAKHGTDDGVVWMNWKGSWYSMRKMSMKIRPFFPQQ
T1 sequence (looked up) 3: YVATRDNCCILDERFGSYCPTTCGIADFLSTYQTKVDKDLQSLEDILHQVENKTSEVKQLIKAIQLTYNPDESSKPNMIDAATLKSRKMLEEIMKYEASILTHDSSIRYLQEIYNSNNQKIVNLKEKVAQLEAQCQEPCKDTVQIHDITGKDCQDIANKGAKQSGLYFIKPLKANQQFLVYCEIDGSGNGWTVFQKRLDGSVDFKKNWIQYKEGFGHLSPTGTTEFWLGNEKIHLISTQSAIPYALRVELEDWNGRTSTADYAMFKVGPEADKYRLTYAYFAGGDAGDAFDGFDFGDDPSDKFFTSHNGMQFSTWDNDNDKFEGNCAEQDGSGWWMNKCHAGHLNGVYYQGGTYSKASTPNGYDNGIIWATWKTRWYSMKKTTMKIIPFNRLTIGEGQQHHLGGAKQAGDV


Tests used:
[1] = biological target: recombinant human HSP90beta (human, UniProt P08238 1-724); test: direct ELISA, coated ligand, HSP90 concentration series
[2] = biological target: T2, synthetic human amyloid-β(1-42) peptide (Aβ42t=0) (human); test: direct ELISA, coated ligand, anti-His-tag detection
T2 construct: also called Aβ1-42

[3] = biological target: T3, oxidized human plasma low density lipoprotein (oxLDL) with misfolded apolipoprotein B100 (human, UniProt P04114 28-4563); test: direct ELISA, coated ligand, HSP60 concentration series
T3 construct: also called oxidized LDL

[4] = biological target: T1, fibrin (immobilized, formed from …); test: direct ELISA, fibrin formed in wells, anti-His-tag detection

T3 sequence (P04114 28-4563 limits assumed): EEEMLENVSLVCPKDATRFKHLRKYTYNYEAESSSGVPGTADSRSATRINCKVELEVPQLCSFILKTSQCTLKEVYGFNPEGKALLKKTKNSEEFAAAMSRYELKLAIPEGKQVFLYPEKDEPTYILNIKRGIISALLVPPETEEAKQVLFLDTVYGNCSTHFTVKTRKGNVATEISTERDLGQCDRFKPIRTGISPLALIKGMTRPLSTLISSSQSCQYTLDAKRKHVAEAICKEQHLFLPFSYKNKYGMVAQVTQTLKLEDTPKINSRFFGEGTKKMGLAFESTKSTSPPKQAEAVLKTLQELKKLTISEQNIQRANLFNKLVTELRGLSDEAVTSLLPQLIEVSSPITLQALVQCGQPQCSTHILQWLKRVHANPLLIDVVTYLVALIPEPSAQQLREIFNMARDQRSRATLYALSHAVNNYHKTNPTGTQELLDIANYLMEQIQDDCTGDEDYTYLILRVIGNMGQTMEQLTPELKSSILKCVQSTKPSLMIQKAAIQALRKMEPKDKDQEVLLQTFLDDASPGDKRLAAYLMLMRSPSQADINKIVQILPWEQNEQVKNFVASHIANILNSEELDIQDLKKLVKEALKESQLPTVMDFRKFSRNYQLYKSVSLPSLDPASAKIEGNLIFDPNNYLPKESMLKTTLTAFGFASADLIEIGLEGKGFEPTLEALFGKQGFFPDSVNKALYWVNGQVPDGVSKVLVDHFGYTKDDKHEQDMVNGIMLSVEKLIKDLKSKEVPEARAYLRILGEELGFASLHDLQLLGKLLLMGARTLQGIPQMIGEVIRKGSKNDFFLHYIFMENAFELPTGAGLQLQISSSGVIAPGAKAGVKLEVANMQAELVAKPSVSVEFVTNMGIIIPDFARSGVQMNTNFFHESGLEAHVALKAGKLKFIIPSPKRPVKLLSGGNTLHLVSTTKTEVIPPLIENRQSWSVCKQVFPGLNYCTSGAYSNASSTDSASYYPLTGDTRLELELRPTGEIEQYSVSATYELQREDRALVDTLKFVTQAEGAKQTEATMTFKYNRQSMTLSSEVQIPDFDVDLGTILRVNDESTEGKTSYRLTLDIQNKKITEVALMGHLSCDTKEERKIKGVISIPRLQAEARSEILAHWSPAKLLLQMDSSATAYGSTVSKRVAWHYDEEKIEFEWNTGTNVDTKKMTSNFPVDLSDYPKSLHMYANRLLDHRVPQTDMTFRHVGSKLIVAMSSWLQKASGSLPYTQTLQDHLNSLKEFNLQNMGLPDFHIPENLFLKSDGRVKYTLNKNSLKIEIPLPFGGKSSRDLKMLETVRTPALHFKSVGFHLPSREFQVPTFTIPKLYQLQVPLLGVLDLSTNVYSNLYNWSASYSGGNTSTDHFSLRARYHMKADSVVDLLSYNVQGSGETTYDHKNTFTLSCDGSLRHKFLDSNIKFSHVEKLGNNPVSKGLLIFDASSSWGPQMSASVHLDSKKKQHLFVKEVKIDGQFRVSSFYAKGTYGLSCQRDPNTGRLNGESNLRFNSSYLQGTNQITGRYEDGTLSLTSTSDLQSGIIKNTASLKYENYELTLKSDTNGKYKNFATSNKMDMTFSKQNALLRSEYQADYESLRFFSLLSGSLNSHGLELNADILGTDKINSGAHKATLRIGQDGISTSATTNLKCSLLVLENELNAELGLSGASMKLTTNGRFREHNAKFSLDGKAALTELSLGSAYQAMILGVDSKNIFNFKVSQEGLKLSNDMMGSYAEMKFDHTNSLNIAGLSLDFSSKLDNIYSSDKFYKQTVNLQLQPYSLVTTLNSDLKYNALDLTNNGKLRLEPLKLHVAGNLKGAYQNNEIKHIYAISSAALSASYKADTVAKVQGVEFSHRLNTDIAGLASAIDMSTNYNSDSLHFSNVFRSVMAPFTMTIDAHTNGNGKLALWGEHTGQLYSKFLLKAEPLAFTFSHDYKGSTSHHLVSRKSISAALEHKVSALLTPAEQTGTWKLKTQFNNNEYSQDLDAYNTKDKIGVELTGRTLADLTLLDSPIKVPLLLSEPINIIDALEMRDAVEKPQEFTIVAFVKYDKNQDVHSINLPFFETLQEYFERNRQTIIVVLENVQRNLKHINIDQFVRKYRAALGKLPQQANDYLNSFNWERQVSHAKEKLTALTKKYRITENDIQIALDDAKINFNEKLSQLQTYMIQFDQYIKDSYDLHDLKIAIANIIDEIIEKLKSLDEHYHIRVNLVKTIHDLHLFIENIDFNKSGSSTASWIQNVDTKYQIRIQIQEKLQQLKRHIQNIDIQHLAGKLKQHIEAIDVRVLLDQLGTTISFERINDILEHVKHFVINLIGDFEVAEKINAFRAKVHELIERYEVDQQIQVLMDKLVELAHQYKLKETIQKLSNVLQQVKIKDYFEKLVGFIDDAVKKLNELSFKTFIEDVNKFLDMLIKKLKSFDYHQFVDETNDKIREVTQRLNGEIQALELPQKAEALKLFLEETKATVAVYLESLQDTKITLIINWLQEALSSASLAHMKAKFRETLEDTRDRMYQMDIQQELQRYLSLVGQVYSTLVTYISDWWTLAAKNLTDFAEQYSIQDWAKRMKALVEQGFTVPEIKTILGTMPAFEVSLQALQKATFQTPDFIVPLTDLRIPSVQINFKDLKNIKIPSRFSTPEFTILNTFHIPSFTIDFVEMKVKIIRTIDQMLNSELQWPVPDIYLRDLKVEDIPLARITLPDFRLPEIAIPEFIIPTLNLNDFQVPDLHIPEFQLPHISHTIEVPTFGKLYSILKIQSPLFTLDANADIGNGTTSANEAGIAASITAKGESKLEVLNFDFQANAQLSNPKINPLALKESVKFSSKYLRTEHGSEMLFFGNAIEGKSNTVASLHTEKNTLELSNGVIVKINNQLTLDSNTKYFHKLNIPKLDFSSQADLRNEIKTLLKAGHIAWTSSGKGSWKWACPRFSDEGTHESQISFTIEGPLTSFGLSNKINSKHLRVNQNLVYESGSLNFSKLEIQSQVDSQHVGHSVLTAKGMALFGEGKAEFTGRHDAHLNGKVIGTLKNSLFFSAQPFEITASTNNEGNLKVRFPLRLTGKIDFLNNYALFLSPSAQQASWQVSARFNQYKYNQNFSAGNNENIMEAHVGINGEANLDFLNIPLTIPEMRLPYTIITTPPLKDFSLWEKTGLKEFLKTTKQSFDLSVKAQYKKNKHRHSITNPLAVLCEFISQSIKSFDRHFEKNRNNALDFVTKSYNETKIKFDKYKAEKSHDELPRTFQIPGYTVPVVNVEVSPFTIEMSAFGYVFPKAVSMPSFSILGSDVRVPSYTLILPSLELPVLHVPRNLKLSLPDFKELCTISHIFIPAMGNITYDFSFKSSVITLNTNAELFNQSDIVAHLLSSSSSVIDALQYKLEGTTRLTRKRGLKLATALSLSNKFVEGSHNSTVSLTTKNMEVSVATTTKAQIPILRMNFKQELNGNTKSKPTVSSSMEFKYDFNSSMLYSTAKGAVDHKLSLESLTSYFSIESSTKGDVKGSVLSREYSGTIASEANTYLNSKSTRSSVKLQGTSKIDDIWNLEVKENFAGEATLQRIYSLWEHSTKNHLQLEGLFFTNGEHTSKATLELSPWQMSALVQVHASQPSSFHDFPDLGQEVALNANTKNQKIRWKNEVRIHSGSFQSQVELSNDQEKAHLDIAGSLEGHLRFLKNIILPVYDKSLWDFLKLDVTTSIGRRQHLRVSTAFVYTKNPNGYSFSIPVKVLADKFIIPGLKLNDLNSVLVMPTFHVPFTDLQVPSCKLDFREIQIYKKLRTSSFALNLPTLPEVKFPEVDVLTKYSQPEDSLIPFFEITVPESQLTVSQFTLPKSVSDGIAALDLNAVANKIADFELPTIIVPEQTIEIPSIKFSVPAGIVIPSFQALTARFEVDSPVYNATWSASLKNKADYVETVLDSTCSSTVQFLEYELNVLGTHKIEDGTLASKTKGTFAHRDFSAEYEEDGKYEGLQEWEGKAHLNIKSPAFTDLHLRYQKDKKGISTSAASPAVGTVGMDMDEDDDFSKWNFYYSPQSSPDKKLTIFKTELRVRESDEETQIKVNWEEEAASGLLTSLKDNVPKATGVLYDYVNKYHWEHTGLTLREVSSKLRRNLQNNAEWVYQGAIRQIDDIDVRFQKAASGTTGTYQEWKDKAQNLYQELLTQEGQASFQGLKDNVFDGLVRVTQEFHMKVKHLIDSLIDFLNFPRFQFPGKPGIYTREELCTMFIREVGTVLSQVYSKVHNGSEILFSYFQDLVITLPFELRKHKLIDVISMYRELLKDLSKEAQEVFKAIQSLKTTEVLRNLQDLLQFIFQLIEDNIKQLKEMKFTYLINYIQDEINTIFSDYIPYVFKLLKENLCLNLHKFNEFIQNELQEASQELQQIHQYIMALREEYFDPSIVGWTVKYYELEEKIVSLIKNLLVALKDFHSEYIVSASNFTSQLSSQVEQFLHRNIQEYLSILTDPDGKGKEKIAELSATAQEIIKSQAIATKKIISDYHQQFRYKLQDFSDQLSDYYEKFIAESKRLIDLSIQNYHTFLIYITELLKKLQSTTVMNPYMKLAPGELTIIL
T2 sequence (peptide, as listed by the source limits assumed): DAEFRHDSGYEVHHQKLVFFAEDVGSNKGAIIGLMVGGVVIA

binding result [1]	binding result [2]	binding result [3]	binding result [4]	Binder
no binding				heat-denatured chicken ovalbumin (dOVA standard) (other, UniProt P01012 2-386, looked up, also called dOVA std; misfolded hen ovalbumin) GSIGAASMEFCFDVFKELKVHHANENIFYCPIAIMSALAMVYLGAKDSTRTQINKVVRFDKLPGFGDSIEAQCGTSVNVHSSLRDILNQITKPNDVYSFSLASRLYAEERYPILPEYLQCVKELYRGGLEPINFQTAADQARELINSWVESQTNGIIRNVLQPSSVDSQTAMVLVNAIVFKGLWEKAFKDEDTQAMPFRVTEQESKPVQMMYQIGLFRVASMASEKMKILELPFASGTMSMLVLLPDEVSGLEQLESIINFEKLTEWTSSNVMEERKIKVYLPRMKMEEKYNLTSVLMAMGITDVFSSSANLSGISSAESLKISQAVHAAHAEINEAGREVVGSAEAGVDAASVSEEFRADHPFLFCIKHIATNAVLFFGRCVSP
	binds	no binding	binds	recombinant human HSP60 with N-terminal His-tag (other, UniProt P10809 27-573, looked up, not shown: small tags and cut ends, mature; also called His-HSP60) AKDVKFGADARALMLQGVDLLADAVAVTMGPKGRTVIIEQSWGSPKVTKDGVTVAKSIDLKDKYKNIGAKLVQDVANNTNEEAGDGTTTATVLARSIAKEGFEKISKGANPVEIRRGVMLAVDAVIAELKKQSKPVTTPEEIAQVATISANGDKEIGNIISDAMKKVGRKGVITVKDGKTLNDELEIIEGMKFDRGYISPYFINTSKGQKCEFQDAYVLLSEKKISSIQSIVPALEIANAHRKPLVIIAEDVDGEALSTLVLNRLKVGLQVVAVKAPGFGDNRKNQLKDMAIATGGAVFGEEGLTLNLEDVQPHDLGKVGEVIVTKDDAMLLKGKGDKAQIEKRIQEIIEQLDVTTSEYEKEKLNERLAKLSDGVAVLKVGGTSDVEVNEKKDRVTDALNATRAAVEEGIVLGGGCALLRCIPALDSLTPANEDQKIGIEIIKRTLKIPAMTIAKNAGVEGSLIVEKIMQSSSEVGYDAMAGDFVNMVEKGIIDPTKVVRTALLDAAGVASLLTTAEVVVTEIPKEEKDPGMGAMGGMGGGMGGGMF
